From article doi:10.1101/2020.03.27.011510 (bioRxiv, 2020)
Residue numbers refer to the chain shown, from its start. Names may count otherwise.

B1: WT BIR1 C12-GdI (first baculoviral IAP repeat domain of XIAP, spin-labelled at C12 with BrPSPy-DO3A-Gd3+) (domain or fragment)
chain: KTCVPADINKEEEFVEEFNRLKTFANFPSGSPVSASTLARAGFLYTGEGDTVRCFSCHAAVDRWQYGDSAVGRHRKVSPNCRFINGFYLE
modifications: BrPSPy-DO3A-Gd3+ (GdI) spin label on C12 via a thioether bond
B2: BIR1 C12A/K19C-GdI (domain or fragment)
chain: B1 chain with C3A, K10C
modifications: BrPSPy-DO3A-Gd3+ (GdI) spin label on C19 (K19C) via a thioether bond
B3: BIR1 C12A/N28C-GdI (domain or fragment)
chain: B1 chain with C3A, N19C
modifications: BrPSPy-DO3A-Gd3+ (GdI) spin label on C28 (N28C) via a thioether bond
B4: BIR1 C12A/E22C-GdI (domain or fragment)
chain: B1 chain with C3A, E13C
modifications: BrPSPy-DO3A-Gd3+ (GdI) spin label on C22 (E22C) via a thioether bond
B5: WT BIR1 (first baculoviral IAP repeat domain of XIAP), without spin label (domain or fragment)
chain: B1 chain
modifications: 15N isotope-labelled (NMR samples)
B6: S87A BIR1 mutant, without spin label (domain or fragment)
chain: B1 chain with S78A
modifications: 15N isotope-labelled (NMR samples)
B7: BIR1 C12A/V24C-GdI (domain or fragment)
chain: B1 chain with C3A, V15C
modifications: BrPSPy-DO3A-Gd3+ (GdI) spin label on C24 (V24C) via a thioether bond

Legend:
BIR1 C12A/S87A/N28C-GdI = BIR1 C12A/S87A/N28C-GdI (UniProt P98170); assay: DEER
DEER [1] = molecular target: the molecule itself; assay: DEER
DEER [2] = molecular target: the molecule itself; assay: DEER; remark: listed apart in the source
NMR titration = molecular target: the molecule itself; assay: NMR titration

| Molecule | Kd (DEER [1]) [µM] | other results |
| --- | --- | --- |
| BIR1 C12A/S87A/N28C-GdI (from UniProt P98170 10-99) (domain or fragment) |  | Kd (BIR1 C12A/S87A/N28C-GdI): 97.5 µM |
| B1 | 126 ± 40 |  |
| B2 | 126 ± 40 |  |
| B3 | 126 ± 40 | Kd (DEER [2]): 11.3 ± 3.8 µM |
| B4 | 126 ± 40 |  |
| B5 |  | Kd (NMR titration): 4.7 ± 2 µM |
| B6 |  | Kd (NMR titration): 20.3 ± 4.6 µM |
| B7 | 126 ± 40 |  |
